# In article PMC9798971, “Alarming and Calming: Opposing Roles of S100A8/S100A9 Dimers and Tetramers on Monocytes” (Advanced Science, 2022):
# Residue numbers refer to the chain shown, from its start.
# B1: recombinant mouse CD69, His-tagged extracellular domain (domain or fragment)
# chain: NVGKYNCPGLYEKLESSDHHVATCKNEWISYKRTCYFFSTTTKSWALAQRSCSEDAATLAVIDSEKDMTFLKRYSGELEHWIGLKNEANQTWKWANGKEFNSWFNLTGSGRCVSVNHKNVTAVDCEANFHWVCSKPSR
# B2: murine S100A8 (natural protein, UniProt P27005 1-89, looked up)
# chain: MPSELEKALSNLIDVYHNYSNIQGNHHALYKNDFKKMVTTECPQFVQNINIENLFRELDINSDNAINFEEFLAMVIKVGVASHKDSHKE
# notes: S100A8 (MRP8), murine; also called MRP8
# Columns and labels:
# [1] = target: T1, S100A8/S100A9-tetramer (murine) (murine, UniProt P27005 1-89; P31725 1-113); test: ELISA
# T1 chain 1: B2 chain
# T1 chain 2: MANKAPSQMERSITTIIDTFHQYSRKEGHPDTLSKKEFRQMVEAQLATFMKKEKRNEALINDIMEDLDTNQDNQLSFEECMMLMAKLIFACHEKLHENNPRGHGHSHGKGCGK
# murine S100A9-N70A = target: T2, murine S100A9-N70A (murine, UniProt P31725 1-113, N70A); test: reconstitution by refolding together, anion exchange chromatography; equal amounts of the two purified proteins mixed with 1 mM DTT, denatured at pH 2, renatured by stepwise increase of pH to 7.4; residual homodimers separated by anion exchange chromatography; conditions: both partners purified
# T2 sequence (looked up): T1 chain 2 with N70A
# murine S100A9 = target: T3, murine S100A9 (murine, UniProt P31725 1-113); test: as above; conditions: both partners purified
# T3 construct: S100A9 (MRP14), murine; also called MRP14
# T3 sequence (looked up): T1 chain 2
Binder,Kd [1],binding result (murine S100A9-N70A),binding result (murine S100A9)
B1,5.06 nM,–,–
B2,–,binds,binds
